Measurements from article PMC4841471 (Nature, 2015).

Biological target: the molecule itself
Experiment: crystal structure

B1: Two-pore channel TPC1 from Arabidopsis thaliana (AtTPC1) (natural protein, UniProt Q94KI8 1-733, looked up)
chain: MEDPLIGRDSLGGGGTDRVRRSEAITHGTPFQKAAALVDLAEDGIGLPVEILDQSSFGESARYYFIFTRLDLIWSLNYFALLFLNFFEQPLWCEKNPKPSCKDRDYYYLGELPYLTNAESIIYEVITLAILLVHTFFPISYEGSRIFWTSRLNLVKVACVVILFVDVLVDFLYLSPLAFDFLPFRIAPYVRVIIFILSIRELRDTLVLLSGMLGTYLNILALWMLFLLFASWIAFVMFEDTQQGLTVFTSYGATLYQMFILFTTSNNPDVWIPAYKSSRWSSVFFVLYVLIGVYFVTNLILAVVYDSFKEQLAKQVSGMDQMKRRMLEKAFGLIDSDKNGEIDKNQCIKLFEQLTNYRTLPKISKEEFGLIFDELDDTRDFKINKDEFADLCQAIALRFQKEEVPSLFEHFPQIYHSALSQQLRAFVRSPNFGYAISFILIINFIAVVVETTLDIEESSAQKPWQVAEFVFGWIYVLEMALKIYTYGFENYWREGANRFDFLVTWVIVIGETATFITPDENTFFSNGEWIRYLLLARMLRLIRLLMNVQRYRAFIATFITLIPSLMPYLGTIFCVLCIYCSIGVQVFGGLVNAGNKKLFETELAEDDYLLFNFNDYPNGMVTLFNLLVMGNWQVWMESYKDLTGTWWSITYFVSFYVITILLLLNLVVAFVLEAFFTELDLEEEEKCQGQDSQEKRNRRRSAGSKSRSQRVDTLLHHMLGDELSKPECSTSDT
In the case of B1, the “stoichiometry N” value is reported as 2.
